The data set deals with the molecule itself. In words: single-molecule TIRF microscopy of DNA looping.

B1: enhanced green fluorescent protein-MuB fusion (EGFP-MuB) (natural protein, bacteriophage Mu, UniProt P03763 1-312, looked up)
chain: MNISDIRAGLRTLVENEETTFKQIALESGLSTGTISSFINDKYNGDNERVSQMLQRWLEKYHAVAELPEPPRFVETQTVKQIWTSMRFASLTESIAVVCGNPGVGKTEAAREYRRTNNNVWMITITPSCASVLECLTELAFELGMNDAPRRKGPLSRALRRRLEGTQGLVIIDEADHLGAEVLEELRLLQESTRIGLVLMGNHRVYSNMTGGNRTVEFARLFSRIAKRTAINKTKKADVKAIADAWQINGEKELELLQQIAQKPGALRILNHSLRLAAMTAHGKGERVNEDYLRQAFRELDLDVDISTLLRN
Regarding B1, the binding result is on record as “binds”.

Values taken from publication PMC2908525 (Molecular cell, 2010).
